From publication PMC1919509 (Nucleic Acids Research, 2007)

Target: Single-stranded DNA binding protein (SSB), over-expressed recombinant (E. coli, UniProt P0AGE0 1-178)
Experiment: cross-linking

Single-stranded DNA binding protein (SSB), over-expressed recombinant, sequence (P0AGE0 whole entry): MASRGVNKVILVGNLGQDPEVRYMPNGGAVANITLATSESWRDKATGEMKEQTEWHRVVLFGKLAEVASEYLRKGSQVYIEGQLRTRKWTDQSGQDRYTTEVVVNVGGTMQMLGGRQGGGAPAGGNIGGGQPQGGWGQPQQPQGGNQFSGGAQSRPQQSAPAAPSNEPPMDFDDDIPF

B1: Exonuclease IX (ExoIX), native recombinant (natural protein, E. coli, UniProt P38506 1-251, looked up)
chain: MAVHLLIVDALNLIRRIHAVQGSPCVETCQHALDQLIMHSQPTHAVAVFDDENRSSGWRHQRLPDYKAGRPPMPEELHDEMPALRAAFEQRGVPCWSTSGNEADDLAATLAVKVTQAGHQATIVSTDKGYCQLLSPTLRIRDYFQKRWLDAPFIDKEFGVQPQQLPDYWGLAGISSSKVPGVAGIGPKSATQLLVEFQSLEGIYENLDAVAEKWRKKLETHKEMAFLCRDIARLQTDLHIDGNLQQLRLVR
With B1 the “stoichiometry N” value was 2 ExoIX molecules per SSB tetramer.
